Experimental data as given in the supplement of paper PMC10567573.

B1: CCND1 (parent)
chain: PEAEENKQIIRKHAQTFVALCATD
B2: WDFY2 (parent)
chain: FWNFKQMWDSKKIGLRQHHCRKCG

Variants of: B1
Assay: protein stability index of a GFP-peptide fusion (GPS, HEK-293T) (PSI 1-6); higher = more stable
Details: c terminus: a fixed tail appended
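Note: lentivirally expressed fusions sorted by FACS into six bins by GFP to DsRed ratio, PSI derived from sequencing read proportions per bin multiplied by bin number.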

Protein stability index: each site, then its substitutions
I10: E 3.64, F 2.48, G 2.53, H 3.5, K 2.92, L 3.48, M 3.5, N 3.04, P 3.14, Q 2.81, R 3.19, S 2.53, T 3.04, V 3.39, W 3.22, Y 2.29
R11: A 3.58, C 2.94, D 4.11, E 3.76, F 2.64, G 3.16, H 3.33, I 2.84, K 2.9, L 3.25, M 2.71, N 3.59, P 3.28, Q 3.61, S 2.62, T 3.47, V 3.14, W 2.6, Y 2.88
K12: A 3.83, C 2.76, D 3.66, E 4.58, F 2.51, G 3.65, H 3.47, I 2.39, L 2.77, M 2.73, N 3.25, P 4.03, Q 3.9, R 2.67, S 2.29, T 3.06, V 3.13, W 2.34, Y 3.49
H13: A 3.11, C 2.65, D 4.02, E 3.7, F 2.55, G 3.84, I 1.87, K 2.02, L 2.81, M 2.89, N 2.53, P 3.17, Q 3.4, R 2.9, S 2.54, T 3.07, V 3.02, W 2.25, Y 2.59
A14: C 2.72, D 3.71, E 3.45, F 2.79, G 3.71, H 2.62, I 2.29, K 2.38, L 2.18, M 2.97, N 3.77, P 2.64, Q 2.28, R 1.85, S 2.96, T 2.33, V 2.3, W 1.94, Y 2.44
Q15: A 3.45, C 2.84, D 3.66, E 3.63, F 2.07, G 3.11, H 2.97, I 2.33, K 2.04, L 2.49, M 2.59, N 3.41, P 3.48, R 2.32, S 3.52, T 3.18, V 2.84, W 2.16, Y 2.01
T16: A 4.71, C 3.55, D 4.81, E 5.27, F 3.37, G 3.88, H 4.35, I 3.35, K 4.7, L 3.51, M 3.86, N 4.61, P 4.62, Q 4.13, R 4.25, S 3.2, V 3.85, W 2.85, Y 3.58
F17: A 4.99, C 4.84, D 5.61, E 5.24, G 5.43, H 4.86, I 4.84, K 5.34, L 4.47, M 5.03, N 5.41, P 5.15, Q 4.99, R 4.54, S 4.67, T 5.23, V 4.33, W 2.11, Y 3.27
V18: A 3.77, C 3.72, D 5.34, E 5.09, F 4.28, G 4.55, H 4.7, I 4.42, K 5.09, L 4.49, M 4.35, N 4.61, P 5.04, Q 4.29, R 3.87, S 4.49, T 3.96, W 3.76, Y 3.75
A19: C 3.3, D 2.6, E 2.49, F 3.08, G 2.91, H 3.32, I 2.85, K 3.54, L 2.59, M 2.55, N 2.92, P 4.92, Q 2.5, R 3.96, S 2.89, T 4.06, V 4.04, W 3.06, Y 3.64
L20: A 3.3, C 3.82, D 4.62, E 4.8, F 4.21, G 4.71, H 3.21, I 3.33, K 2.59, M 2.11, N 3.84, P 4.79, Q 2.85, R 2.09, S 4.43, T 4.04, V 2.87, W 4.15, Y 2.66
C21: A 4.05, D 5.22, E 4.9, F 3.75, G 5.04, H 4.37, I 1.98, K 5.07, L 1.66, M 3.28, N 5.27, P 4.7, Q 4.95, R 4.86, S 4.07, T 2.78, V 2.24, W 3.59, Y 2.96
A22: C 2.15, D 3.87, E 2.96, F 2.63, G 3.37, H 3.38, I 2.95, K 3.66, L 2.72, M 2.67, N 4.43, P 4.49, Q 2.91, R 3.16, S 3.19, T 2.87, V 2.52, W 2.09, Y 3.02
T23: A 2.87, C 2.64, D 3.22, E 2.21, F 1.75, G 2.64, H 2.64, I 2.38, K 2.92, L 2.35, M 2.94, N 2.94, P 3.07, Q 2.54, R 2.48, S 2.48, V 2.87, W 2.63, Y 2.47
D24: A 3.27, C 2.71, E 2.33, F 2.23, G 2.85, H 2.77, I 2.15, K 3.84, L 2.79, M 2.93, N 3.88, P 3.63, Q 3.8, R 2.7, S 3.9, T 3.35, V 2.54, W 2.39, Y 2.89

Variants of: B2
Assay: as above
Details: c terminus: a fixed tail appended

Protein stability index: each site, then its substitutions
F1: A 2.86, C 2.65, D 2.59, E 3.02, G 2.32, H 2.66, I 2.08, K 2.11, L 1.44, M 1.52, N 2.32, P 2.99, Q 2.11, R 2.01, S 2, T 2.14, V 2.86, W 2.25, Y 1.52
W2: A 1.86, C 2.19, D 2.78, E 3.29, F 1.61, G 1.8, H 2.32, I 2.23, K 2.04, L 1.93, M 2.39, N 2.63, P 2.58, Q 1.19, R 2.61, S 1.42, T 2.12, V 3.04, Y 2.25
N3: A 1.22, C 2.08, D 2.05, E 2.12, F 2.05, G 2.28, H 1.77, I 1.84, K 1.7, L 1.42, M 1.35, P 1.85, Q 2.1, R 1.42
